For series [1], the target named is ATRIP peptide (Homo sapiens) (UniProt Q8WXE1). The settings on record: cited from earlier work.
For series [2] the target is unchanged. The settings on record: cited from earlier work. This is another data set of the same source.
Series [3] concerns the target T1, TbRPA1 DBD-AB (Trypanosoma brucei) (UniProt Q384B5).
T1 sequence: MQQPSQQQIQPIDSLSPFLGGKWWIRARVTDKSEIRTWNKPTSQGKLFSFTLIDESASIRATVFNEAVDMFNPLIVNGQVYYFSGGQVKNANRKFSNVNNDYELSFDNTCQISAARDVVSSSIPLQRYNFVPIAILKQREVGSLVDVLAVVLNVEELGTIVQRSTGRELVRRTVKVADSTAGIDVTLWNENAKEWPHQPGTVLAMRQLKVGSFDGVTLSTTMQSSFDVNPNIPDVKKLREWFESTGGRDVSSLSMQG
Briefly: MST. The settings on record: 20 mM Tris pH 7.5, 10 mM NaCl, 10 mM MgCl2, 2 mM DTT, 10% glycerol, 0.1 mg/ml BSA, 15 min, room temperature; EMSA 2 nM probe (gel at 4 C), MST 10 nM probe. On the technique in general: A gel shift assay detects complexes by their altered migration in electrophoresis.

In series [4] the target is TbRPA complex: 6xHis-RPA1;TbRPA2;TbRPA3 (Trypanosoma brucei;Trypanosoma brucei;Trypanosoma brucei) (UniProt Q384B5). The series is described as follows: MST. The settings on record: 20 mM Tris pH 7.5, 10 mM NaCl, 10 mM MgCl2, 2 mM DTT, 10% glycerol, 0.1 mg/ml BSA, 15 min, room temperature, EMSA 2 nM probe (gel at 4 C), MST 10 nM probe.

Like-named read-outs stand apart in the source and are kept apart here.

ATRIP peptide (Homo sapiens), sequence (Q8WXE1 whole entry): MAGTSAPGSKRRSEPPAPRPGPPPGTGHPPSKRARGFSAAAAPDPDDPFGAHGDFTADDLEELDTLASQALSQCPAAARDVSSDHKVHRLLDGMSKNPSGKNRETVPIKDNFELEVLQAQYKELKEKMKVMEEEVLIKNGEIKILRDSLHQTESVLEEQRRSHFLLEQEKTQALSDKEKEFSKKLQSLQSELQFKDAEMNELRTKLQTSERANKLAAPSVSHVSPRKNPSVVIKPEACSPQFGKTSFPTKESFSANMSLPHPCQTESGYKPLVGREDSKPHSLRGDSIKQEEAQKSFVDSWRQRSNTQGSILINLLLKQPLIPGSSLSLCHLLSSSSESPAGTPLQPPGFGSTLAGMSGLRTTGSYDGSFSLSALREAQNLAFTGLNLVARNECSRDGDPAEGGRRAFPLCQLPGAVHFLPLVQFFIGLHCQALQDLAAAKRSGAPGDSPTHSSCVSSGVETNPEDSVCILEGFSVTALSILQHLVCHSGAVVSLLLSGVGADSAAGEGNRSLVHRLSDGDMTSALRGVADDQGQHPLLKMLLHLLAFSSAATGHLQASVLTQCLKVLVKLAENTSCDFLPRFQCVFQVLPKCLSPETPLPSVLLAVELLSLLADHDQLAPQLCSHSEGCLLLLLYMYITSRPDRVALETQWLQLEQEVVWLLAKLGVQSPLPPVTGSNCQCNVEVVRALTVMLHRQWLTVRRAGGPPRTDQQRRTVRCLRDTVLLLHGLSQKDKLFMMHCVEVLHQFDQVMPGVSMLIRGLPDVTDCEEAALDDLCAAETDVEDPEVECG
RPA1 DBD-F DBD-F, sequence (P27694 1-120): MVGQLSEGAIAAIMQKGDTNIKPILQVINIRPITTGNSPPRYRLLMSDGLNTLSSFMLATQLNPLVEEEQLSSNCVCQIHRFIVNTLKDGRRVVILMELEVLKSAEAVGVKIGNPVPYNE
RPA1 DBD-AB DBD-AB, sequence (P27694 181-422): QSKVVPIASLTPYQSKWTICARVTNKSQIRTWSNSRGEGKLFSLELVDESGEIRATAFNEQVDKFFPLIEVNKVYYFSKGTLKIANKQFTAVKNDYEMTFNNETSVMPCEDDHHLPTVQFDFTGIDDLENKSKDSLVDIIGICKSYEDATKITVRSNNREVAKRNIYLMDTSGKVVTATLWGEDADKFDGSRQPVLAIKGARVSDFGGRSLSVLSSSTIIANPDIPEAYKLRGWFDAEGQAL

“RPA1 DBD-AB DBD-AB (from UniProt P27694)”: the equilibrium dissociation constant (Kd) in series [1] is 12000 nM.
Consider RPA1 DBD-F DBD-F (from UniProt P27694), for which the Kd in series [2] was 7400 nM.
Substance TTTTTTTTTTTT [dT12] yielded a Kd in series [3] of 60.5 nM.
As to TTTTTTTTTTTTTTTTTTTT [dT20], the Kd in series [4] (17.2 nM in peer review file) is 17 nM.
With TTTTTTTTTTTTTTTTTTTTTTTTTTTTTTTT [dT32], the equilibrium dissociation constant (Kd) was 13.2 nM in series [4] and 15.5 nM in series [4] (second measurement, with S105T / length series).

The Kd is the constant that tells how readily two partners part at equilibrium.

The record behind these values is paper PMC10359466, “Identification of a small-molecule inhibitor that selectively blocks DNA-binding by Trypanosoma brucei replication protein A1” (Nature Communications, 2023).
